Results published in article PMC2800238.

Molecular target: nsp12 (RdRp) (SARS-CoV Frankfurt-1, UniProt P0C6X7 4370-5301)
Assay: EMSA

Question: How did the Kd turn out when GCUAUGUGAGAUUAAGUUAU (ssRNA) [SAV557R ssRNA] was run?
Answer: 100 nM

B1: SAV557R/SAV481R primer-template duplex (dsRNA)
RNA 1: GCUAUGUGAGAUUAAGUUAU
RNA 2: UUUUUUUUUUAUAACUUAAUCUCACAUAGC
Question: B1 was tested. Which Kd did it give?
Answer: 130 nM
